Measured values taken from patent US5480971A, “Peralkylated oligopeptide mixtures” (Houghten Pharmaceuticals, Inc., priority 1994, dated 1996).
Square brackets hold non-standard residues; d marks the D form. Ends that are not written are not given here. Peptide text beside a SMILES is read from it. * marks the point of attachment. NMeF = CN[C@@H](Cc1ccccc1)C(=O)O; X3 = C[C@@H](C(=O)*)[N+](C)(C)C; NMeL = CN[C@@H](CC(C)C)C(=O)O; Sar = CNCC(=O)O

Columns and labels:
Format in all cases: in vitro ADME
[1] = Enzymatic susceptibility to chymotrypsin (RP-HPLC, mass spectral analysis); settings: chymotrypsin; overnight enzyme exposure (16 hours), room temperature, pH 7.8; read-out: cleavage by chymotrypsin
Method: (§1) The stability of N-permethylated compounds to proteolysis was examined for two permethylated sequences, AlaGlyGlyPheLeu-NH2 (SEQ ID NO:37) and ArgGlyGlyPheLeu-NH2 (SEQ ID NO:38) with their non-permethylated equivalents used as controls. Treatment of these found compounds by trypsin and chymotrypsin was monitored by RP-HPLC and mass spectral analysis. Rapid cleavage of AGGFL-NH2 (SEQ ID NO:37) by chymotrypsin and RGGFL-NH2 (SEQ ID N0:38) by trypsin was observed (<1 hour), whereas less than 1 percent cleavage of the equivalent permethylated peptides was seen following overnight enzyme exposure.
(§2) The assays were performed in 1 ml 0.1M NH4 HCO3, pH 7.8, at room temperature for 16 hours at a peptide concentration of 1.0 mg/ml. Enzyme to peptide concentration was 1:50.

chymotrypsin = assay: as above; settings: peptide 1.0 mg/ml, enzyme to peptide 1:50, 0.1M NH4HCO3 pH 7.8, room temperature
Method: as §1, §2

trypsin = assay: Enzymatic susceptibility to trypsin (RP-HPLC, mass spectral analysis); settings: peptide 1.0 mg/ml, enzyme to peptide 1:50, 0.1M NH4HCO3 pH 7.8, room temperature
Method: as §1, §2

## CNC(=O)[C@H](CC(C)C)N(C)C(=O)[C@H](Cc1ccccc1)N(C)C(=O)CN(C)C(=O)CN(C)C(=O)[C@H](C)[N+](C)(C)C [PerA-AGGFL] (X3-[Sar][Sar][NMeF][NMeL]-NHMe)
[1]
  metabolised at 16 h, 1 mg/ml: < 1%

## AlaGlyGlyPheLeu-NH2 (AGGFL-NH2) [non-permethylated equivalent used as control, reference compound]
chymotrypsin
  time in which cleavage by chymotrypsin was observed: < 1 h

## ArgGlyGlyPheLeu-NH2 (RGGFL-NH2) [non-permethylated equivalent used as control]
trypsin
  time in which cleavage by trypsin was observed: < 1 h
